Read-outs that look alike come from different tables or passages of the source.
How the values were obtained:
[1] = biological target: actin in thin filaments (mouse (endogenous in C57BL/6 ventricular myofibrils)) (UniProt P68033)
[2] = biological target: actin in thin filaments (mouse (endogenous in C57BL/6 ventricular myofibrils)) (UniProt P68033); remark: listed apart in the source

Substance: myosin cross-bridge (from UniProt Q02566 1-1938; P09542 1-204; P51667 1-166) (complex)
- k3 (rate of dissociation of XBs from thin filaments, with ATP) [1]: 0.0492 s⁻¹
- k3 (rate of dissociation of XBs from thin filaments, with ATP) [2]: 0.061 s⁻¹
